From patent US20260001928A1 (CORTERIA PHARMACEUTICALS, priority 2022, published 2026)
*1 amine or outer side, *2 acyl side, *3 side chain or, on linkers, in order; H or OH if unused. Side-chain parts run from the residue outwards. [ ]: non-standard residue; d: D form. The star is where a group is joined. C20 diacid = O=C(O)CCCCCCCCCCCCCCCCCCC(=O)*; γGlu = O=C(O)[C@H](CCC(=O)[*:2])N[*:1]; Lauroyl = CCCCCCCCCCCC(=O)*; Decanoyl = CCCCCCCCCC(=O)*; Pentanoyl = CCCCC(=O)*; Aib = CC(C)(N)C(=O)O

Key:
[1] = target: human corticotropin-releasing factor 2a (CRF2a receptor) (human), Q13324; experiment: cell-based or functional assay
Chain of human corticotropin-releasing factor 2a (CRF2a receptor) (human), Q13324 (Q13324 20-411): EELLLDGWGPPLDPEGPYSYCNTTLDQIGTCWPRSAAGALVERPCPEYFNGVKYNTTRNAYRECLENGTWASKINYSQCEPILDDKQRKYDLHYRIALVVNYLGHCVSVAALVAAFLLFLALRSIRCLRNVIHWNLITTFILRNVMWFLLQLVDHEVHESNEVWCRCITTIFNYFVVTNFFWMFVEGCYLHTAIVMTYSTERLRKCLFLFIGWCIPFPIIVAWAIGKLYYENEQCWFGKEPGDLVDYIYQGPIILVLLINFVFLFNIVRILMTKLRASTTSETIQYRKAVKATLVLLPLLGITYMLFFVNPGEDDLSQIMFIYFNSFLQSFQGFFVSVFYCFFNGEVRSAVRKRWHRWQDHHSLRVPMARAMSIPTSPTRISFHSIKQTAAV

CRF1R receptor = target: T1, CRF1R receptor (UniProt P34998 24-415, limits assumed); experiment: cell-based or functional assay
T1 sequence (looked up): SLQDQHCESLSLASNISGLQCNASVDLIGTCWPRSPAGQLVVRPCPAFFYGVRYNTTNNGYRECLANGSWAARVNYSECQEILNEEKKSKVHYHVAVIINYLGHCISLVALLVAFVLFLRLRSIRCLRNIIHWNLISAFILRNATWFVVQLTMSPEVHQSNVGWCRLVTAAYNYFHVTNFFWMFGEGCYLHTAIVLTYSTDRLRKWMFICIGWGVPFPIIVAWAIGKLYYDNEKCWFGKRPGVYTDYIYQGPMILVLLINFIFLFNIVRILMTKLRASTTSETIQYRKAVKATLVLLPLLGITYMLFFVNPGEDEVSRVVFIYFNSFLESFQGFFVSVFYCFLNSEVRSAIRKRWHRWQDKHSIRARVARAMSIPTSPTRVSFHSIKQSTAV

B1: SEQ ID NO 224 (peptide)
peptide: Lauroyl-VLSLD[dV]PIKLK([γGlu-C20 diacid])KILLEQEKQKKQREQAETN[Aib]QILAQV-NH2
SMILES: CCCCCCCCCCCC(=O)N[C@H](C(=O)N[C@@H](CC(C)C)C(=O)N[C@@H](CO)C(=O)N[C@@H](CC(C)C)C(=O)N[C@@H](CC(=O)O)C(=O)N[C@@H](C(=O)N1CCC[C@H]1C(=O)N[C@H](C(=O)N[C@@H](CCCCN)C(=O)N[C@@H](CC(C)C)C(=O)N[C@@H](CCCCNC(=O)CC[C@H](NC(=O)CCCCCCCCCCCCCCCCCCC(=O)O)C(=O)O)C(=O)N[C@@H](CCCCN)C(=O)N[C@H](C(=O)N[C@@H](CC(C)C)C(=O)N[C@@H](CC(C)C)C(=O)N[C@@H](CCC(=O)O)C(=O)N[C@@H](CCC(N)=O)C(=O)N[C@@H](CCC(=O)O)C(=O)N[C@@H](CCCCN)C(=O)N[C@@H](CCC(N)=O)C(=O)N[C@@H](CCCCN)C(=O)N[C@@H](CCCCN)C(=O)N[C@@H](CCC(N)=O)C(=O)N[C@@H](CCCNC(=N)N)C(=O)N[C@@H](CCC(=O)O)C(=O)N[C@@H](CCC(N)=O)C(=O)N[C@@H](C)C(=O)N[C@@H](CCC(=O)O)C(=O)N[C@H](C(=O)N[C@@H](CC(N)=O)C(=O)NC(C)(C)C(=O)N[C@@H](CCC(N)=O)C(=O)N[C@H](C(=O)N[C@@H](CC(C)C)C(=O)N[C@@H](C)C(=O)N[C@@H](CCC(N)=O)C(=O)N[C@H](C(N)=O)C(C)C)[C@@H](C)CC)[C@@H](C)O)[C@@H](C)CC)[C@@H](C)CC)C(C)C)C(C)C
EC50 [nM] (cAMP) [1]: 0.07 nM
EC50 (CRF1R receptor): 39.5 nM
Emax (% I) (CRF1R receptor): 66%

B2: SEQ ID NO 223 (peptide)
peptide: Decanoyl-VLSLD[dV]PIKLK([γGlu-C20 diacid])KILLEQEKQKKQREQAETN[Aib]QILAQV-NH2
SMILES: CCCCCCCCCC(=O)N[C@H](C(=O)N[C@@H](CC(C)C)C(=O)N[C@@H](CO)C(=O)N[C@@H](CC(C)C)C(=O)N[C@@H](CC(=O)O)C(=O)N[C@@H](C(=O)N1CCC[C@H]1C(=O)N[C@H](C(=O)N[C@@H](CCCCN)C(=O)N[C@@H](CC(C)C)C(=O)N[C@@H](CCCCNC(=O)CC[C@H](NC(=O)CCCCCCCCCCCCCCCCCCC(=O)O)C(=O)O)C(=O)N[C@@H](CCCCN)C(=O)N[C@H](C(=O)N[C@@H](CC(C)C)C(=O)N[C@@H](CC(C)C)C(=O)N[C@@H](CCC(=O)O)C(=O)N[C@@H](CCC(N)=O)C(=O)N[C@@H](CCC(=O)O)C(=O)N[C@@H](CCCCN)C(=O)N[C@@H](CCC(N)=O)C(=O)N[C@@H](CCCCN)C(=O)N[C@@H](CCCCN)C(=O)N[C@@H](CCC(N)=O)C(=O)N[C@@H](CCCNC(=N)N)C(=O)N[C@@H](CCC(=O)O)C(=O)N[C@@H](CCC(N)=O)C(=O)N[C@@H](C)C(=O)N[C@@H](CCC(=O)O)C(=O)N[C@H](C(=O)N[C@@H](CC(N)=O)C(=O)NC(C)(C)C(=O)N[C@@H](CCC(N)=O)C(=O)N[C@H](C(=O)N[C@@H](CC(C)C)C(=O)N[C@@H](C)C(=O)N[C@@H](CCC(N)=O)C(=O)N[C@H](C(N)=O)C(C)C)[C@@H](C)CC)[C@@H](C)O)[C@@H](C)CC)[C@@H](C)CC)C(C)C)C(C)C
EC50 [nM] (cAMP) [1]: 0.08 nM
EC50 (CRF1R receptor): 152 nM
Emax (% I) (CRF1R receptor): 58%

B3: SEQ ID NO 221 (peptide)
peptide: Pentanoyl-VLSLD[dV]PIKLK([γGlu-C20 diacid])KILLEQEAQKKQREQAETN[Aib]QILAQV-NH2
SMILES: CCCCC(=O)N[C@H](C(=O)N[C@@H](CC(C)C)C(=O)N[C@@H](CO)C(=O)N[C@@H](CC(C)C)C(=O)N[C@@H](CC(=O)O)C(=O)N[C@@H](C(=O)N1CCC[C@H]1C(=O)N[C@H](C(=O)N[C@@H](CCCCN)C(=O)N[C@@H](CC(C)C)C(=O)N[C@@H](CCCCNC(=O)CC[C@H](NC(=O)CCCCCCCCCCCCCCCCCCC(=O)O)C(=O)O)C(=O)N[C@@H](CCCCN)C(=O)N[C@H](C(=O)N[C@@H](CC(C)C)C(=O)N[C@@H](CC(C)C)C(=O)N[C@@H](CCC(=O)O)C(=O)N[C@@H](CCC(N)=O)C(=O)N[C@@H](CCC(=O)O)C(=O)N[C@@H](C)C(=O)N[C@@H](CCC(N)=O)C(=O)N[C@@H](CCCCN)C(=O)N[C@@H](CCCCN)C(=O)N[C@@H](CCC(N)=O)C(=O)N[C@@H](CCCNC(=N)N)C(=O)N[C@@H](CCC(=O)O)C(=O)N[C@@H](CCC(N)=O)C(=O)N[C@@H](C)C(=O)N[C@@H](CCC(=O)O)C(=O)N[C@H](C(=O)N[C@@H](CC(N)=O)C(=O)NC(C)(C)C(=O)N[C@@H](CCC(N)=O)C(=O)N[C@H](C(=O)N[C@@H](CC(C)C)C(=O)N[C@@H](C)C(=O)N[C@@H](CCC(N)=O)C(=O)N[C@H](C(N)=O)C(C)C)[C@@H](C)CC)[C@@H](C)O)[C@@H](C)CC)[C@@H](C)CC)C(C)C)C(C)C
EC50 [nM] (cAMP) [1]: 0.18 nM
EC50 (CRF1R receptor): 22.5 nM
Emax (% I) (CRF1R receptor): 79%

B4: SEQ ID NO 222 (peptide)
peptide: Pentanoyl-VLSLD[dV]PIKLK([γGlu-C20 diacid])KILLEQEKQKAQREQAETN[Aib]QILAQV-NH2
SMILES: CCCCC(=O)N[C@H](C(=O)N[C@@H](CC(C)C)C(=O)N[C@@H](CO)C(=O)N[C@@H](CC(C)C)C(=O)N[C@@H](CC(=O)O)C(=O)N[C@@H](C(=O)N1CCC[C@H]1C(=O)N[C@H](C(=O)N[C@@H](CCCCN)C(=O)N[C@@H](CC(C)C)C(=O)N[C@@H](CCCCNC(=O)CC[C@H](NC(=O)CCCCCCCCCCCCCCCCCCC(=O)O)C(=O)O)C(=O)N[C@@H](CCCCN)C(=O)N[C@H](C(=O)N[C@@H](CC(C)C)C(=O)N[C@@H](CC(C)C)C(=O)N[C@@H](CCC(=O)O)C(=O)N[C@@H](CCC(N)=O)C(=O)N[C@@H](CCC(=O)O)C(=O)N[C@@H](CCCCN)C(=O)N[C@@H](CCC(N)=O)C(=O)N[C@@H](CCCCN)C(=O)N[C@@H](C)C(=O)N[C@@H](CCC(N)=O)C(=O)N[C@@H](CCCNC(=N)N)C(=O)N[C@@H](CCC(=O)O)C(=O)N[C@@H](CCC(N)=O)C(=O)N[C@@H](C)C(=O)N[C@@H](CCC(=O)O)C(=O)N[C@H](C(=O)N[C@@H](CC(N)=O)C(=O)NC(C)(C)C(=O)N[C@@H](CCC(N)=O)C(=O)N[C@H](C(=O)N[C@@H](CC(C)C)C(=O)N[C@@H](C)C(=O)N[C@@H](CCC(N)=O)C(=O)N[C@H](C(N)=O)C(C)C)[C@@H](C)CC)[C@@H](C)O)[C@@H](C)CC)[C@@H](C)CC)C(C)C)C(C)C
EC50 [nM] (cAMP) [1]: 0.14 nM
EC50 (CRF1R receptor): 196 nM
Emax (% I) (CRF1R receptor): 50%
